As usually defined, the stoichiometry N is the number of molecules, sites or subunits per partner or assembly.

Data on 4 molecules can be found in publication PMC10063603, “Release of frustration drives corneal amyloid disaggregation by brain chaperone” (Communications Biology, 2023).

B1: human WT lipocalin-type prostaglandin D synthase (L-PGDS) (natural protein)
chain: APEAQVSVQPNFQQDKFLGRWFSAGLASNSSWLREKKAALSMCKSVVAPATDGGLNLTSTFLRKNQCETRTMLLQPAGSLGSYSYRSPHWGSTYSVSVVETDYDQYALLYSQGSKGPGEDFRMATLYSRTQTPRAELKEKFTAFCKAQGFTEDTIVFLPQTDKCMTEQ
notes: Lipocalin-type prostaglandin D synthase (L-PGDS), human, wild type; 15N-labelled for the solution NMR; loaded with heme for the cryo-EM micrographs; unlabelled for ssNMR and ThT assays; also called WT L-PGDS; source: E. coli Rosetta 2 DE3 (pNIC-CH vector), purified (Superdex 75 in PBS)
B2: TGFBIp A620D peptide (residues 611-633), recombinant, uniformly 13C,15N-labelled, as amyloid fibril (peptide, UniProt Q15582 611-633, looked up)
peptide: EPVAEPDIMDTNGVVHVITNVLQ
modifications: also: uniformly 13C,15N-labelled
notes: also called A620D fibrils; source: E. coli BL21 (DE3), His-tag-BEAK-tag-TEV fusion, purified (Ni-NTA, TEV cleavage, reverse phase-HPLC); not shown: His-tag, N-terminal, cleaved; BEAK tag, N-terminal, cleaved
B3: TGFBIp G623R peptide (residues 611-633), recombinant, uniformly 13C,15N-labelled, as amyloid fibril (peptide)
peptide: EPVAEPDIMATNRVVHVITNVLQ
modifications: also: uniformly 13C,15N-labelled
notes: also called double-labeled G623R fibrils; 13C-15N labeled G623R fibril; source: E. coli BL21 (DE3), His-tag-BEAK-tag-TEV fusion, purified (Ni-NTA, TEV cleavage, reverse phase-HPLC); fibrils seeded with 5% (w/v) synthetic G623R seeds in 20 mM TRIS, 37 °C; not shown: His-tag, N-terminal, cleaved; BEAK tag, N-terminal, cleaved
B4: TGFBIp G623R peptide (residues 611-633 of the 4th FAS-1 domain), synthetic, as amyloid fibril (peptide)
peptide: EPVAEPDIMATNRVVHVITNVLQ
notes: Assayed as preformed amyloid fibril (many copies); also called G623R fibril; TGFBIp G623R fibril; source: synthetic peptide, bought: Synpeptide Co Ltd; fibrils formed in PBS at 37 °C, 180 rpm

No end group written: not given here.

Data set [1] concerns the target B4. In words: cryo-EM micrographs; L-PGDS-heme complex (heme as contrast enhancer) mixed with G623R fibrils at 1:10; stoichiometry counted from the images. The following applies: both partners purified.
Data set [2] concerns the target B4. In words: cell-based or functional assay.
Data set [3] concerns the molecule itself. Briefly: solid-state NMR; 13C,15N-labelled A620D fibrils in a 1.9 mm rotor; 600 MHz, MAS 13333 Hz, 12 °C; NCA spectrum.
The target of data set [4] is B1. Briefly: solid-state NMR; unlabelled L-PGDS added to preformed 13C,15N-labelled G623R fibrils at 1:10; 1D 13C CP and 2D DARR (20 and 75 ms) compared with fibrils alone. To be noted: both partners purified.
Data set [5] concerns the molecule itself. In words: solid-state NMR; 13C,15N-labelled G623R fibrils packed in a 1.9 mm rotor; 18.8 T, MAS 17.857 kHz, 12 °C; NCA, NCO, DARR (20 and 75 ms), NCACX, NCOCX, CANCO; repeating unit calculated with CYANA.
Data set [6] has as its target B1. Briefly: NMR titration; 2D 1H-15N HSQC of 15N-labelled L-PGDS without and with G623R fibrils at a molar ratio of 1:4 (L-PGDS: fibrils), 600 MHz. To be noted: both partners purified.
Data set [7] concerns the molecule itself. In words: cryo-EM structure; G623R fibrils, Titan Krios 300 kV, helical reconstruction in RELION-3.1, map at 4.9 Å; model built with the ssNMR restraints.

Regarding B1, in data set [1], the “stoichiometry N” value was 7 peptides per L-PGDS. In data set [2], the “persistence length of G623R fibrils in cryo-EM micrographs without and with L-PGDS” value came to 4 fold; the “reduction of ThT intensity of preformed G623R fibrils after 24 h with L-PGDS at molar ratios of 1:2, 1:5 and 1:10 (52%, 27%, 19%)” value amounted to 52%.
Regarding B2, in data set [3], the binding result is given as “binds”.
Consider B3, for which the binding result in data set [4] and in data set [5] was “binds” each time.
With B4, the binding result in data set [6] and in data set [7] was “binds” throughout.
